Assay: soluble on expression in E. coli; label from the status in PepcDB or PDB records

Sequence | soluble on expression in E. coli
MSLLSKDIKLLPGSKVEVVIRVSKNVIQEKYNSLLQDYSSRLKIQGFRIGKVPINVIENKYSEGLKATVLEEVINNSFKEFFKEESKIPLSYATPTVKEKNLKLNLDKDFEFTFTYETYPEFKIPSFDEIDIKVEIPEVFIDDSDIDDEIKNLQIENSIIIEDEEGVVKEDSIVKVDFVELDDLSNEIVSTKRQGFVFTVGKSETYYDFDKDVIGMRINEERVIEKSYIADYKFEELAGSSRKLKIKIKSIKKRDLPLIDDEFAQDISDKYNTLDDLKNFIRSSLLNIVEEKKETLKLNKFFSTISEKLEIDIPHSMIEAEIEIAFKDAKRQNKNNMSLEEFKSIFYSSGYIGGDNLKDEILGNLKSKLIMQKMVDLDPIKVTESDVEDEMARQSKNLGVSYEEIKKFYEDQNLISYLKDDIKRERAKKKILENLKEVKGKKLNFRDFVNYKIEGHHHHHH | soluble
MSLLSKVVTQIKGFLHDSVDKASDDGRTARQLIRDVGENEEKIKEALVESRSQAIISKQKVEDKQSAIALSKKRAAKAVELDKEDLARTILVEKRQQESDLAALQNQQAKFDNIVVTLTSRFNDIQKKRSEMERKADSIDLRSKVAAATEEATKLLDVGNFASYDSASKVFDRLEDNIAKKEAKSQARGEFIDAEKDKQDELVSLDRHGLDESIEDELAALRAMNKKQELEHHHHHH | not soluble
MSLLTLAFNPQPRAKTYCSGPILRVSGVWAVKILYIVLDGAADSPTSPRKTLEEASKPNIDSLGSHAVCGMVYTVKPGVAPQSDYATLSLLGYNPDEYYPGRGPLEAFGAGIEMRRGDIALRANFATVDPGTLRIIDRRVGRSLTSREARELASAVDGMELEDGEGTALFRATIGHRGVLVLRHRSKPLSDAISNTDPAYERRGRFSVALEKYEPFIKLSNPLVEDEAAVLAARMLNEFTLKAVEILDSHPVNLAREKRGLLKANAILSRDAGGLPEEKPPSFQERFGLRGASIVEMVVERGISRYIGLDDIRVEIEGRAREEVYREEAARAVEALETHDLVYVHLKGPDEPGHDGSFEGKIRAVEDIDKHFFAPLLDRLSSAGLEPAFVVTSDHATPWDVGAHSGDPVPLMISHQSIQGSIGKFSETVCLRGRLGTIIGGYRIIPKTLSLLAGLEHHHHHH | soluble
MSLNAIARQEPFDLNDPALRARAVAAARGDAPFDMLITGGRLLDAVTGLIREADIGLVGALIASVHAPASRTDAVEIIDATGGILTPGLIDMHMHVESSMVTPAEYASAVLPHGVTTVVWDPHEFGNVQGLDGVRWAIEAARTLPLRMILLAPSCVPSAPGLELAGADFDAAVIAEMLRSPAVGGVAEVMNMRGVIDGDPRMSAIVNSGLASGKLVCGHARGLTGADLNAFMAAGVTSDHELTSGADLAAKLSAGLTIELRGSHDHLLQEFVEVLNGLGHLPATVTLCTDDVFPDELYQSGGLDEVARRLVRYGMKPEWALRAATFNAAQRLKRSDLGLVASGRRADLVLFEDLTELRARLVISDGRIVARNGSMEAAVQPLDTAPLINSTKLPPLTESDFRVPAKGARVRIATIDRPRFTQWGEAETEIRDGFVVPPAGSAMIAVAHRHGKAGGTPRIGFLTGWGEWRGAFCTTVSHDSHNLTVFGGDARDMALAANAVIKAGGGLAVAKDGAIQAILPLPLSGLVTDASLKDTASAFSDIRKAMDKIVDWKPPYRVFKACFGATLACNAGPHQTDRGIADVTTGKVLESPVLEIEGHHHHHH | soluble
MSLNALDPHDALPWIEETTALELSPSQRSAVTLVLASKVSIITGGPGVGKTTILKAILSVLQREKVSVALCAPTGRAAKRLTESTGIEAKTIHRLLEFDPQAFDFKRGRGNPLDASFVVVDETSMVDVVLMQKLVAAIPDHAAVVFVGDVDQLPSVGPGAVLADMISSEAIPTVRLTEIFRQAAESMIVVNAHRINQGDMPLTAEGEELSDFYVVKAASAEEIHDKVIQLVTERIPKRFGLDAVKDVQVLTPMNKGGVGVHALNAELQAKLNPASEPKVTRFGTTFAPGDKVIQTVNNYDKEVFNGDIGLIEAIDPEAEIATAFFFDHHRAEYDFNDLDELSLAYATSIHKSQGSEYPAVVIPLAMQHFTLLERNLIYTAVTRGRKLVVIVAEPKALTLAIKNCKSKRRLTGLVQRLRESGKQSWQNEGHHHHHH | soluble
MSLNASSISSRFKDLFVTPSIVFDFDGTLAIGHGPVLAYALCVAPEGSKDFLERVRRELRRYDDGQSIYRDGYDIVAKLASELGIDDGTMSVAYGESRKLLGSDLAPVEHVRGIKDILSSLKGHARLVLATNAPENGVHDLLRQWGVADLFDQLHFVVGKPAGLISIISDLQLDGPVLAVGDIYEFDLSPAAQLGADTALVGATATISEAKVSMRGDSIADLPLLAWVSSRVSSEGHHHHHH | soluble
MSLNCTLDELRQRIEAHRPRQLDTDQRFPQAAVLVPITRSDDPELVLTLRAAGLSTHGGEVAFPGGRRDPEDADLVRTALREAEEEIALPPGLVEVVGPLSTLVSRHGIEVTPYVAFIPDFVEYQPNDGEIAAVFNVPLSFFRDDPREVTHRIDYFGRSWYVPSYRFGEFKIWGLTAIMVVELVNLLYDDPIDLHTPPASFIKLSEGGSHHHHHH | soluble
MSLNEHDIYMQDFMTVFASLQHWGPGSEQDSLKAISLMSMQNMQHILDIGCETGLSTLLLAENSSAHITAVDNEPIAIEQLEKQRQHSPWKEQISPVLGSMTALPFAAKSFDAIWAEGCVYIMGMENALKQWKPFLADNAILMVSDLVWLTENPKPEAQEFWQSEYPDIQSIPSRIKLFKKLGYEVMEHFSLGIDAWQNYWLPLQNRVQELKLRLTNSQALSDIEKEIAIYERSAAKDFTYQYFVLKLNHEGHHHHHH | not soluble
MSLNEKVALVTGASRGIGFEVAHALASKGATVVGTATSQASAEKFENSMKEKGFKARGLVLNISDIESIQNFFAEIKAENLAIDILVNNAGITRDNLMMRMSEDEWQSVINTNLSSIFRMSKECVRGMMKKRWGRIISIGSVVGSAGNPGQTNYCAAKAGVIGFSKSLAYEVASRNITVNVVAPGFIATDMTDKLTDEQKSFIATKIPSGQIGEPKDIAAAVAFLASEEAKYITGQTLHVNGGMYMA | soluble
MSLNELPEFEDYVVLTQQQNQNYKIVQQFNNFDKAILLGTSTFFEGFDFQANGIKCVMIAKLPFMNKHNAKYWLMDSEFTSTFKEYVLPDAVTRFRQGLGRLIRNENDRGIIVSFDDRLINSNYKNFFEQTLENYRQKKGDIQQFGKLLRQIQKEGHHHHHH | not soluble
MSLNFDFAENDFRPLAARMRPRTLDEYCGQQHLIGQGKPLRRAIESGHAHSMILWGPPGTGKTTLAEIIAYRINAEVERLSAVTSGVKDIREAIERAKRNRLADRQTILFVDEVHRFNKSQQDAFLPHIEDGTIIFIGATTENPSFELNNALLSRTRVYILKSLTTADVQRVLQQAVADEERGLGKARLNLQANLLHLLAEYVNGDARLALNCLELMADMAEEDENGKKIDRTLLTEVLGERQARFDKGGDRFYDLISAVHKSIRGSAPDAALYWYARIITAGGDPLYVARRLLAIASEDIGNADPRAMQVALSAWDCFTRVGAAEGERAIAQAIVYLAVAPKSNAVYQAFNAAKALAKQAPDYDVPRHLTNAPTQLLKELGNHAEYRYAHDEPNAYAAGENYFPEPLKDTRFYFPGARGMEIKIKEKLDWLRNLDQQSENIREGHHHHHH | not soluble
MSLNFEYIINSLLETIKTYNFFVDWEKIENNIKKIEKRLHILNYLIGKENFKEEFFELLKEYPEVITVFPILIAVRDNKITILNENMELETLEFKEKKYLTDEEIERYYKFFKETGLEDLLKNRKIKNLVDYVFGVEVGMDTNARKNRIGDLMENIVKKYIENLCKQNKNLDYIFQATKDKIKQKWGINLTLDKTNRKFDFAVFNKNTKKLYLIEVNFYSGGGSKLKATAGEYRSLNEFIKNNNNNVQFIWITDGKGWNTAKNPLKESFNSGVVILNLKMVKEGLLKEILTQEGHHHHHH | soluble
MSLNFLEFEKPIAELEAKIEALRDVSRHGGDSAIDLDKEIEQLEKKSLELKKKIFSDLGAWETAQLARHPLRPYTLDYVQHVFEEFDELAGDRAFADDKAIVGGIARLEGRPVMIIGHQKGRETKEKVRRNFGMPKPEGYRKALRLMEMAERFNMPIITFIDTAGAYPGVGAEERGQSEAIAKNLKVMSGLKVPVICNVVGEGGSGGALAIGVGDYVNMLQYSTYSVISPEGCASILWRDSDKAPQAAEAMGLTAPRLKELELIDEIIEEPLGGAHRDHVKMAENMKATLLRQLEDLEQLDEESLRERRYQRLMNYGYC | not soluble
MSLNFYYATSILIKEVVVSTKWLLGISLMLSTVAQANENSNQDTDISIPSPWKHQVEFGYQAHSGNTESESLNSRLKSEYTMGRHRTYGEWKFYKLDKNGKEDKRQSTFAFQSDYKLGPKTYLYGSFYGTNSRYTAYFKDHTLSGGLGYQFAYTDEMVLELELGPGFRYQKPNLDEIDDDDIVFPDLVQEAIFRSNLKAEWQALNNLRFEAEMTMVSGRSNTSLDSNISLTNDITDHIALKIRQSRQYHNRMPEGLSKADSVISVNLLFEFEGHHHHHH | not soluble
MSLNGDNQQILREIVLNPTIHGKELESIFGLSRRQLGYRIQKINLWLEQEGYPKLERTSQGNFIVSSEIMTLFKRDVSEQQMLNGNNVIFSIETRRYYLMLMLFSKENAMSLNHFSIDLQVSKNTVIHDINHVKEQLENHGLSLKYSRKHGYEIVGDEFEVRRFFIKLIDQRLNHDITKSEVLKALNLTFEDIAYQKDKIKQVEQFLKSRFIDKSLSSLPYVLCVIRRRIQSGHVMNPLNINYQYLRDTKEYQATEIMTQHEPDLPEAEKLYLTLHLLSTSVQWTDLQESDSISNLTMAIAQMIHHFEQITFINIEDKEKLSQQLLLHLTPAFYRIKYNLTDRDELINPLQGNYQSLFHMVKQSCQSLTEYFGKSLPDNEIAYLTMLFGGSLRREGHHHHHH | soluble
MSLNGLKRGFPVMKEQIGGKLICISGIPGTGKSTICNLLNDLGYTCVEGNALAVKYGCLSGDEVDVDCLSDRMRSDNFKGIVAAHYAHLLPCNIVIILEADESALRQRMMDRGYSPEKIDENLDAQRSDTIYAESLERLPANRIFRIRNADLNVALSDILRIIGGRNEGHHHHHH | soluble
MSLNIAIFINTPAQFHFYRNIAKELKNRGHFVELLFRDYGENLEIAKELGLNPTVYAKPSDSKYGKILSLPSDVLRATKLLKKFKPDIITGFGVYDAFSSFLVNVPCIVFNDSEPFINSSYAVQFKLFMPFTNVLITPEAFQPNFGTKHINIPSYKEFSYLHPNYYTPKEDIFELIGIEKNEEYILLRFNAFDAVHDAGITGFTKENKIKLVKELEKHCKVFISSETQVPKEIEKNILKTPKSRIHDVLYYAKILITDTQTMTTEAALLGTPALRYNKFVGGKDMSNFIELEKNYGLIFNYQNSEKIFERAFELLNTENLKEIWKKKRELLLKNKIDSTSFMVWFFENYPESFEKMKTDVTIYENFNDNLAKIKGEGHHHHHH | soluble
MSLNKSTVDYQNAKILMDNFYSSREININGDNVTIVINDIMYIPSIDELEIKNGDKNLIIKFDRDGNKVKYKDIECIEYLNLKKGEEISLFNKSYIVEDITSNYVILKEKDGKEVLTNESFEYDGYKVVVKLVSSDLNTIIVDIYKNEKVLDSPKLTKGKIYYMKGGTLGLMYENCTRIGKGYRFTFRVYSTIKIEEGEDYPLDKEFKVKEISTDKIKLEYKNIDSLGNEIYLFNYTIIPEKCYKDYVLFKVIKRKEKTVDVKDVAYIGDGIYAVKVNNTVHVFYKGKELKNHEKIYLGSVDVYSSNPLNVNKDIILIGGPKVNKIVKELEDKGLLKVNISTNYPGNNRGIILKIKNPYNDNNIYILAGSDRWGTKAAILVFLTKYNDEDTLMVEWDKGEIKIIKEGHHHHHH | soluble

Reference: the DeepSol protein solubility set
